Experimental findings from article PMC3635990, “Vpu Binds Directly to Tetherin and Displaces It from Nascent Virions” (PLoS Pathogens, 2013) are described below.

The data set concerns the molecule itself. As to the kind of experiment: cross-linking; unfractionated whole cell lysates of the oxidised, co-transfected 293T cells of Figure 1B; non-reducing SDS-PAGE (Bio-Rad), Western blot; monomer to dimer.

B1: Tetherin^CC/SS-I46C-HA (natural protein)
chain: MASTSYDYSRVPMEDGDKRSKLLLGIGILVLLIIVILGVPLIIFTCKANSEACRDGLRAVMECRNVTHLLQQELTEAQKGFQDVEAQAATCNHTVMALMASLDAEKAQGQKKVEELEGEITTLNHKLQDASAEVERLRRENQVLSVRIADKKYYPSSQDSS
notes: Tetherin (Bst2/CD317/HM1.24), human; also called TetherinI46C; Teth^CC/SS-I46C-HA; source: HEK293T, co-transfected, in cells and lysate
Turning to B1, the “stoichiometry N” value amounted to 2.

B2: Tetherin^CC/SS-T45C-HA (natural protein)
chain: MASTSYDYSRVPMEDGDKRSKLLLGIGILVLLIIVILGVPLIIFCIKANSEACRDGLRAVMECRNVTHLLQQELTEAQKGFQDVEAQAATCNHTVMALMASLDAEKAQGQKKVEELEGEITTLNHKLQDASAEVERLRRENQVLSVRIADKKYYPSSQDSS
notes: Tetherin (Bst2/CD317/HM1.24), human; also called TetherinT45C; source: HEK293T, co-transfected, in cells and lysate
Regarding B2, the “stoichiometry N” value was 2.
